Experimental data reported in patent US20030211563A1 (UNIVERSITY OF VIRGINIA PATENT FOUNDATION, published 2003).

Target: T1, tssk 2 fused to the GAL4 DNA binding domain (DNA-BD) (human, UniProt P04386 1-147 (Saccharomyces cerevisiae entry), limits assumed)
T1 construct: Yeast two-hybrid bait in reporter strain AH109; also called bait gene (tssk 2); TSSK2 fusion protein with the DNA-BD
Assay: yeast two-hybrid, growth in His-free medium
Description: In this experiment, a bait gene (tssk 2) was first transformed into the reporter strain as a fusion to the GAL4 DNA binding domain (DNA-BD). A second plasmid that expressed tsks as fusion to the GAL 4 activation domain (AD) was also introduced into the AH109 reporter strain. Western blots were performed to confirm expression of fusion proteins in yeast. […] This interaction was used as a positive control. […] Neither GAL-AD alone nor the fusion proteins between GAL-AD and TSKS or GAL-AD and SV40 Large T antigen had the ability to activate transcription of the His gene.

binding result: no binding
B1: GAL4 activation domain alone (GAL-AD plasmid) (other, UniProt P04386 768-881, looked up)
chain: ANFNQSGNIADSSLSFTFTNSSNGPNLITTQTNSQALSQPIASSNVHDNFMNNEITASKIDDGNNSKPLSPGWTDQTAYNAFGITTGMFNTTTMDDVYNYLFDDEDTPPNPKKE
notes: Empty prey control in the yeast two-hybrid experiment; also called GAL-AD alone
